What all share (assay): cell-based or functional assay
In assay [1] the target is human amylin 3(a) receptor (human calcitonin receptor with RAMP-3) (human) (UniProt P30988).
Assay [2] addresses human amylin 3(a) receptor (human calcitonin receptor co-expressed with RAMP-3) (human) (UniProt P30988).
For assay [3], the target named is human calcitonin (a) receptor (human) (UniProt P30988).
human calcitonin (a) receptor (human), sequence (P30988 25-474): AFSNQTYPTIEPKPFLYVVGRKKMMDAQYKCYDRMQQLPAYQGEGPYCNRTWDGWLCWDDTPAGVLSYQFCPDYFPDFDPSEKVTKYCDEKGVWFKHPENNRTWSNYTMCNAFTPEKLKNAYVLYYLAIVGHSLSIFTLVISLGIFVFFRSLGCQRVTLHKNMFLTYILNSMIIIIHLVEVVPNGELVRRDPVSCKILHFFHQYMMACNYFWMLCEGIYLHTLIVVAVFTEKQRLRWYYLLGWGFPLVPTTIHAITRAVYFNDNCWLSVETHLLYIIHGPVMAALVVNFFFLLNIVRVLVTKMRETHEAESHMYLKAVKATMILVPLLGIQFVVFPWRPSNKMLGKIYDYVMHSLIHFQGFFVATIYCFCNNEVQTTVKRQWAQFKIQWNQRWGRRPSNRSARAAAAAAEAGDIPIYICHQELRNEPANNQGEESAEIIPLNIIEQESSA

human amylin 3(a) receptor (human calcitonin receptor with RAMP-3) (human), sequence (P30988 25-474, chain 1 of 2): as the sequence (P30988 25-474) above
human amylin 3(a) receptor (human calcitonin receptor with RAMP-3) (human), sequence (O60896 24-148, chain 2 of 2, further chain): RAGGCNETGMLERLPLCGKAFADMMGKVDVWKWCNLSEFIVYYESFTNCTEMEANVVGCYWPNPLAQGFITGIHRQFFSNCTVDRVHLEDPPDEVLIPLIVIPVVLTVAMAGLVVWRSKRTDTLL
human amylin 3(a) receptor (human calcitonin receptor co-expressed with RAMP-3) (human), sequence (P30988 25-474, chain 1 of 2): as the sequence (P30988 25-474) above
human amylin 3(a) receptor (human calcitonin receptor co-expressed with RAMP-3) (human), sequence (O60896 24-148, chain 2 of 2, further chain): as the sequence (O60896 24-148, chain 2 of 2, further chain) above

As to “N-alpha-(19-carboxynonadecanoyl)-Glu-Glu-Arg-[Glu1,Pro37]-pramlintide (peptide)”, the Amylin receptor human EC50 (pM) in assay [1] and in assay [2] was 45 pM in each case. In assay [3], the CTa receptor human EC50 (pM) turned out to be 61.5 pM.
